Experimental data from US20230212319A1, “NOVEL ANTIGEN BINDING DOMAINS AND SYNTHETIC ANTIGEN RECEPTORS INCORPORATING THE SAME” (University of Southern California, priority 2020, published 2023).

B1: 21985 (protein)
chain: MALPVTALLLPLALLLHAARPQLQLQESGPGLVKPSETLSLTCTVSGDSISSGDYYWGWIRQPPGKGLEWIGHIYYSGVTYYNPSLKSRVTISVDTSRNQFSLKLSSVTAADTAVYYCTREDSSNWRSRGQGTLVTVSSLEDLKNVFPPEVAVFEPSEAEISHTQKATLVCLATGFYPDHVELSWWVNGKEVHSGVCTDPQPLKEQPALNDSRYCLSSRLRVSATFWQNPRNHFRCQVQFYGLSENDEWTQDRAKPVTQIVSAEAWGRADCGFTSESYQQGVLSATILYEILLGKATLYAVLVSALVLMAMVKRKDSRGRAKRSGSGATNFSLLKQAGDVEENPGPTSMDWIWRILFLVGAATGAHSFEVQLLESGGGLIQPGGSLRLSCAASGFTFSSHAMTWVRQAPGKGLEWVSAISGSGDYTHYADSVKGRFTISRDNSKNTVYLQMNSLRAEDSAVYYCAKDEDGGSLLGHRGQGTLVTVSSTRIQNPDPAVYQLRDSKSSDKSVCLFTDFDSQTNVSQSKDSDVYITDKCVLDMRSMDFKSNSAVAWSNKSDFACANAFNNSIIPEDTFFPSPESSCDVKLVEKSFETDTNLNFQNLSVIGFRILLLKVAGFNLLMTLRLWSSRAKRSGSGVKQTLNFDLLKLAGDVESNPGPSRGHMTEYKPTVRLATRDDVPRAVRTLAAAFADYPATRHTVDPDRHIERVTELQELFLTRVGLDIGKVWVADDGAAVAVWTTPESVEAGAVFAEIGPRMAELSGSRLAAQQQMEGLLAPHRPKEPAWFLATVGVSPDHQGKGLGSAVVLPGVEAAERAGVPAFLETSAPRNLPFYERLGFTVTADVEVPEGPRTWCMTRKPGA
B2: 22020 (protein)
chain: MALPVTALLLPLALLLHAARPQLQLQESGPGLVKPSETLSLTCTVSGDSISSGDYYWGWIRQPPGKGLEWIGHIYYSGVTYYNPSLKSRVTISVDTSRNQFSLKLSSVTAADTAVYYCTREDSSNWRSRGQGTLVTVSSLDSGGGGSFEQLQLQESGPGLVKPSETLSLTCTVSGGSISSGDYYWGWIRQPPGKGLEWIGHIYYSGATYYNPSLKSRVTISVDTSRNQFSLKLSSVTAADTAVYYCTRDDSSNWRSRGQGTLVTVSSTRIQNPDPAVYQLRDSKSSDKSVCLFTDFDSQTNVSQSKDSDVYITDKCVLDMRSMDFKSNSAVAWSNKSDFACANAFNNSIIPEDTFFPSPESSCDVKLVEKSFETDTNLNFQNLSVIGFRILLLKVAGFNLLMTLRLWSSRAKRSGSGVKQTLNFDLLKLAGDVESNPGPSRGHMTEYKPTVRLATRDDVPRAVRTLAAAFADYPATRHTVDPDRHIERVTELQELFLTRVGLDIGKVWVADDGAAVAVWTTPESVEAGAVFAEIGPRMAELSGSRLAAQQQMEGLLAPHRPKEPAWFLATVGVSPDHQGKGLGSAVVLPGVEAAERAGVPAFLETSAPRNLPFYERLGFTVTADVEVPEGPRTWCMTRKPGA
B3: 22162 (protein)
chain: MALPVTALLLPLALLLHAARPDIQMTQSPSSLSASVGDRVTITCKASDHINNWLAWYQQKPGQAPKLLIYGATTLETGVPSRFSGSGSGTDYTLTISSLQPEDFATYYCQQSWNTPWTFGQGTKLEIKRLEDLKNVFPPEVAVFEPSEAEISHTQKATLVCLATGFYPDHVELSWWVNGKEVHSGVCTDPQPLKEQPALNDSRYCLSSRLRVSATFWQNPRNHFRCQVQFYGLSENDEWTQDRAKPVTQIVSAEAWGRADCGFTSESYQQGVLSATILYEILLGKATLYAVLVSALVLMAMVKRKDSRGRAKRSGSGATNFSLLKQAGDVEENPGPTSATMDWIWRILFLVGAATGAHSGPEVQLLESGGGLVQPGGSLRLSCAASGSIASIHAMGWFRQAPGKEREFVAVITWSGGITYYADSVKGRFTISRDNSKNTVYLQMNSLRPEDTALYYCAGDKHQSSWYDYWGQGTLVTVSSGSGGGGSGGGGSGGGGSFEQVQLQQPGAELVKPGASVKMSCKASGYAFSSYWINWMKQKPGQGLEWIGQIYPGDGDTNYNGKFKGRATLTADTSSSTAYMQLSSLTSEDSAVYFCARSITTVVGCAMDYWGQGTSVTVSSTRIQNPDPAVYQLRDSKSSDKSVCLFTDFDSQTNVSQSKDSDVYITDKCVLDMRSMDFKSNSAVAWSNKSDFACANAFNNSIIPEDTFFPSPESSCDVKLVEKSFETDTNLNFQNLSVIGFRILLLKVAGFNLLMTLRLWSSRAKRSGSGVKQTLNFDLLKLAGDVESNPGPSRGHMTEYKPTVRLATRDDVPRAVRTLAAAFADYPATRHTVDPDRHIERVTELQELFLTRVGLDIGKVWVADDGAAVAVWTTPESVEAGAVFAEIGPRMAELSGSRLAAQQQMEGLLAPHRPKEPAWFLATVGVSPDHQGKGLGSAVVLPGVEAAERAGVPAFLETSAPRNLPFYERLGFTVTADVEVPEGPRTWCMTRKPGA
B4: 22165 (protein)
chain: MALPVTALLLPLALLLHAARPACEVQLLESGGGLIQPGGSLRLSCAASGFTFSSHAMTWVRQAPGKGLEWVSAISGSGDYTHYADSVKGRFTISRDNSKNTVYLQMNSLRAEDSAVYYCAKDEDGGSLLGHRGQGTLVTVSSGTGGGGSGGGGSGGGGSEFDIQMTQSPSSLSASVGDRVTITCKASDHINNWLAWYQQKPGQAPKLLIYGATTLETGVPSRFSGSGSGTDYTLTISSLQPEDFATYYCQQSWNTPWTFGQGTKLEIKRLEDLKNVFPPEVAVFEPSEAEISHTQKATLVCLATGFYPDHVELSWWVNGKEVHSGVCTDPQPLKEQPALNDSRYCLSSRLRVSATFWQNPRNHFRCQVQFYGLSENDEWTQDRAKPVTQIVSAEAWGRADCGFTSESYQQGVLSATILYEILLGKATLYAVLVSALVLMAMVKRKDSRGRAKRSGSGATNFSLLKQAGDVEENPGPTSATMDWIWRILFLVGAATGAHSGPEVQLVESGGGLVQAGGSLRLSCAASGRTFSMGWFRQAPGKEREFVAAITYSGGSPYYADSVKGRFTISRDNAKNTVYLQMNSLKPEDTAVYYCAANPTYGSDWNAENWGQGTQVTVSSGSGGGGSGGGGSGGGGSFEQVQLQQPGAELVKPGASVKMSCKASGYAFSSYWINWMKQKPGQGLEWIGQIYPGDGDTNYNGKFKGRATLTADTSSSTAYMQLSSLTSEDSAVYFCARSITTVVGCAMDYWGQGTSVTVSSTRIQNPDPAVYQLRDSKSSDKSVCLFTDFDSQTNVSQSKDSDVYITDKCVLDMRSMDFKSNSAVAWSNKSDFACANAFNNSIIPEDTFFPSPESSCDVKLVEKSFETDTNLNFQNLSVIGFRILLLKVAGFNLLMTLRLWSSRAKRSGSGVKQTLNFDLLKLAGDVESNPGPSRGHMTEYKPTVRLATRDDVPRAVRTLAAAFADYPATRHTVDPDRHIERVTELQELFLTRVGLDIGKVWVADDGAAVAVWTTPESVEAGAVFAEIGPRMAELSGSRLAAQQQMEGLLAPHRPKEPAWFLATVGVSPDHQGKGLGSAVVLPGVEAAERAGVPAFLETSAPRNLPFYERLGFTVTADVEVPEGPRTWCMTRKPGA

Legend:
Format in all cases: cell-based
Nalm6 cells = experiment: JNG assay, co-culture with Nalm6 cells; details: co-culture with Nalm6
Protocol: Cellular supernatant is collected and assayed for the induction of cytokines (e.g., IL2).
JNG (Jurkat cells expressing EGFP under an NFAT promoter) were infected with lentiviral vectors encoding different single chain and multi-chain SARs by spinfection in the presence of 8 µg/ml of Polybrene® (Sigma, Catalog no. H9268). The Jurkat-NFAT-GFP cells are engineered in such a way that the IL-2 promoter, which carries NFAT binding sites, is cloned upstream of the GFP gene. These cells have been used to study signaling via TCR and CAR. The different SARs were stably expressed in Jurkat NFAT-GFP cells by lentiviral mediated gene transfer, followed by selection with puromycin or blasticidin. No drug selection was used in case the construct lacked an antibiotic resistance gene. The SAR-expressing Jurkat-NFAT-GFP cells were cocultured with the target cells at E:T ratio of approximately 1:2 for approximately 4 hours to 18 hours. When the interaction between SIRs and their target antigen results in activation of the NFAT pathway, GFP expression is induced. […] GFP expression was monitored by FACS analysis. The Jurkat-NFAT-GFP (parental) cells were used as control. The structure of different constructs can be determined based on their names. For example, the construct CD8SP-CD19-hu-mROO5-1-vL-[hTCRa-C SDVP]-F-F2A-Spe-IgHSP-Apa-CD20-vHH-2HCD25-G4S-CDl9-hu-mROO5-1-vH-Mlu-[hTCRb-KACIAH]-F-P2A-PAC has the following modules from 5′ to 3′ direction: a CD8 signal peptide (CD8SP), the CD19 targeting hu-mROO5-1 vL fragment (CD19-hu-mROO5-1), Xho1 cloning site, human TCRa constant chain containing CSDVP mutations (hTCRa-CSDVP), Furine cleavage site (F), F2A ribosomal skip sequence (F2A), SpeI site, human IgH signal peptide (IgHSP), Apa I restriction enzyme site, camelid CD20-2HCD25-VHH module targeting CD20, BamHI restriction enzyme site, Glycinex4-serine linker (G4S), BstI restriction enzyme site, CD19-hu-mROO5-1-vH fragment targeting CD19, Mlu I restriction enzyme site, human TCRb constant chain containing KACIAH mutations ([hTCRb-KACIAH]), Furine cleavage site (F), P2A ribosomal skip sequence and Puromycin resistance gene (PAC). The sequence of the other constructs in the table can be similarly determined from their names and by referring to the different Tables of this disclosure that provide the names and SEQ ID NO of the different modules. Alternatively, the composition and modular architecture of the different SAR constructs can be determined from their sequences by bioinformatics tools, including using nucleic acid and amino acids homology searches. A SAR is considered positive in the assay in case the SAR expressing Jurkat-NFAT-GFP cells show greater % GFP positive cells when cultured with the target cell line as compared to parental Jurkat-NFAT-GFP cells. The signs +/-, +, 2+ etc. after the name of the cell lines indicate the relative degree of positivity on the Jurkat-NFAT-GFP assay as measured by the % GFP positive cells after culture of the SAR expressing Jurkat-NFAT-GFP cells with that cell line above the % GFP cells observed in parental Jurkat NFAT-GFP cells serving as controls. In general, the number +/-, +, 2+, 3+, 4+, 5+ refer to approximately 5%, 10%, 20%, 30%, 40% and 50% GFP positive cells. The % of GFP induction in the above assay is dependent not only the relative strength of the SAR but also, among other factors, on the relative level of expression of the SAR in the JNG cells and the relative level of expression of the target antigen in the target cell line. To control for the difference in gene transduction efficiency of the different SAR constructs, the experiment was conducted with JNG cells transduced with SAR constructs co-expressing a drug resistance gene (e.g., puromycin or PAC) followed by drug selection to generate a stable population of SAR-expressing cells. […]

RAJI cells = experiment: JNG assay, co-culture with RAJI cells; details: JNG cells expressing construct, co-culture with Raji
In short: (§1)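 Jurkat-NFAT-GFP (JNG) cells stably expressing SAR constructs via lentiviral transduction and puromycin/blasticidin selection were cocultured with target cells at E:T ~1:2 for ~4–18 h. NFAT-driven GFP was measured by FACS versus parental JNG cells; scores +/- to 5+ denote ~5–50% GFP-positive cells.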

L363 cells = experiment: JNG assay, co-culture with L363 cells; details: co-culture with L363
In short: as §1

Molecule | NFAT-GFP ASSAY: Nalm6 (Nalm6 cells) | NFAT-GFP ASSAY: Raji (RAJI cells) | NFAT-GFP ASSAY: L363 (L363 cells)
B1 | +/- (refer to approximately 5%, 10%, 20%, 30%, 40% and 50% GFP positive cells) | – | –
B2 | +/- (refer to approximately 5%, 10%, 20%, 30%, 40% and 50% GFP positive cells) | +/- (refer to approximately 5%, 10%, 20%, 30%, 40% and 50% GFP positive cells) | –
B3 | 5+ (refer to approximately 5%, 10%, 20%, 30%, 40% and 50% GFP positive cells) | – | –
B4 | – | Raji (+), L363 (+) (refer to approximately 5%, 10%, 20%, 30%, 40% and 50% GFP positive cells) | Raji (+), L363 (+) (refer to approximately 5%, 10%, 20%, 30%, 40% and 50% GFP positive cells)
